Results on eight molecules are retold here after PMC4714197, “The Tomato Nucleotide-binding Leucine-rich Repeat Immune Receptor I-2 Couples DNA-binding to Nucleotide-binding Domain Nucleotide Exchange” (The Journal of Biological Chemistry, 2015).

Changes are numbered by the printed parent chain.

In data set [1] the test system is R1-NB (NB subdomain of Os02g_25900) (Oryza sativa (rice)). Briefly: EMSA. The note with it: apparent Kd; EMSA: 20 mM Tris-HCl pH 8.0, 60 mM NaCl, 2 mM EDTA, 1 mM DTT, 10% glycerol, 0.1 mg/ml BSA, 0.15 nM nucleic acid, 20 min on ice (nucleotide tests + 10 mM ZnCl2 …).
Data set [2] deals with T1, I-2_1–519 (Solanum lycopersicum, UniProt Q9XET3).
T1 construct: gene I2; CC-NB-ARC domains, residues 1-519, LRR lacking
T1 sequence (Q9XET3 entry or part of it): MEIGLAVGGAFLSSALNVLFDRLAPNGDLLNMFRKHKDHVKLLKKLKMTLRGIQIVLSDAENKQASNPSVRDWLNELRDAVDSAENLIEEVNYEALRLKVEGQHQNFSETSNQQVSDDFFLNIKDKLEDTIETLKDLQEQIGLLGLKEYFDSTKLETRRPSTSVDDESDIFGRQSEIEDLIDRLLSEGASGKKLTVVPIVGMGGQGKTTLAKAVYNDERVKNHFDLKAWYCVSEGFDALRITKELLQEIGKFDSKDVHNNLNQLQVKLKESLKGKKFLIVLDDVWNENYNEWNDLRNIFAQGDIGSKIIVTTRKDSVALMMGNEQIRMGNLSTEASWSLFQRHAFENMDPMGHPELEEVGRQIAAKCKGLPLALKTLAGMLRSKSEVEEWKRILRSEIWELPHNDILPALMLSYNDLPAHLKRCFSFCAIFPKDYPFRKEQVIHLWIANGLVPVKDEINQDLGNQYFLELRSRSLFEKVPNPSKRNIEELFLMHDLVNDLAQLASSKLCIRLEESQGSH
In words: ATPase assay, 3H-ATP, TLC. Format: biochemical. The note with it: 5 uM ATP, 10 mM MgCl2, pH 7.5, 37 °C; without and with 2 uM DNA; labelled compound.

The target of data set [3] is T1, I-2_1–519. In words: EMSA of […]-dsDNA binding with nucleotide. As to conditions: 5 uM ADP, 10 mM ZnCl2, pH 8.0, on ice; ADP lowers DNA binding.
The target of data set [4] is T2, I-2_1–519 (Solanum lycopersicum, UniProt Q9XET3, S233F).
T2 construct: gene I2; CC-NB-ARC domains, residues 1-519, LRR lacking
T2 sequence (Q9XET3 entry or part of it S233F): as the sequence (Q9XET3 entry or part of it) above, with S233F counted along it
Briefly: EMSA of […]-dsDNA binding with nucleotide. As to conditions: 5 uM ADP compared with 5 uM ATP; 10 mM ZnCl2, pH 8.0, on ice.

Data set [5] addresses T3, I-2 CC-NB-ARC K207R (Solanum lycopersicum (tomato), UniProt Q9XET3 1-519, K207R).
T3 sequence: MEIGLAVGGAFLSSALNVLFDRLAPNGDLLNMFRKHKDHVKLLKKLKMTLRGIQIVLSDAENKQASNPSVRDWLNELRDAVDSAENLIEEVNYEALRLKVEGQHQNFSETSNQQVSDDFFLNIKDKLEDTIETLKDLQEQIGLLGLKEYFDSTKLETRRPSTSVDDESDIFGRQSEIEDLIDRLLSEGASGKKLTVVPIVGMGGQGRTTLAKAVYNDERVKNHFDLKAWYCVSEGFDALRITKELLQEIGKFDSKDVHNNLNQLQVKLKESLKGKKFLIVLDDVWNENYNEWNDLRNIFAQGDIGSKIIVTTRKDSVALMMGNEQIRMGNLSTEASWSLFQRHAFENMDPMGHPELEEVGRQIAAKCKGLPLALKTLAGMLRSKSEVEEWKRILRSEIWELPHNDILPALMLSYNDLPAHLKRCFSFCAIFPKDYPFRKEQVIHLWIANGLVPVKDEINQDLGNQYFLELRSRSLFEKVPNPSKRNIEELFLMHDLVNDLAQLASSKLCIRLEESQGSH
In words: fluorescence anisotropy; EMSA: 20 mM Tris-HCl pH 8.0, 60 mM NaCl, 2 mM EDTA, 1 mM DTT, 10% glycerol, 0.1 mg/ml BSA, 0.15 nM nucleic acid, 20 min on ice (nucleotide tests + 10 mM ZnCl2 as printed); anisotropy: 6.7 mM Tris-HCl pH 8.0, 3.3 mM Na acetate, 2 mM EDTA, 10 nM DNA, 25 C; P1: 20 mM Tris acetate pH 7.5, 10 mM Mg acetate, 100 mM NaCl, 37 C. As to conditions: protein: recombinant; label: fluorescein end label on SS1s; blunt.

For data set [6], the target named is T4, I-2 CC-NB-ARC WT (I-2 1-519) (Solanum lycopersicum (tomato), UniProt Q9XET3 1-519).
T4 sequence: T3 sequence with R207K
The description is as above. As to conditions: protein: recombinant; label: fluorescein end label on SS1s; blunt.

The target in data set [7] is T4, I-2 CC-NB-ARC WT (I-2 1-519). Briefly: EMSA; apparent Kd; EMSA: 20 mM Tris-HCl pH 8.0, 60 mM NaCl, 2 mM EDTA, 1 mM DTT, 10% glycerol, 0.1 mg/ml BSA, 0.15 nM nucleic acid, 20 min on ice (nucleotide tests + 10 mM ZnCl2 as printed); anisotropy: 6.7 mM Tris-HCl pH 8.0, 3.3 mM Na acetate, 2 mM EDTA, 10 nM DNA, 25 C; P1: 20 mM Tris acetate pH 7.5, 10 mM Mg acetate, 100 mM NaCl, 37 C. As to conditions: protein: recombinant, label: 32P end label.

Another data set concerns the target T5, I-2 CC-NB-ARC S233F (Solanum lycopersicum (tomato), UniProt Q9XET3 1-519, S233F).
T5 sequence: T3 sequence with R207K, S233F
Briefly: EMSA; indistinguishable from WT; EMSA: 20 mM Tris-HCl pH 8.0, 60 mM NaCl, 2 mM EDTA, 1 mM DTT, 10% glycerol, 0.1 mg/ml BSA, 0.15 nM nucleic acid, 20 min on ice (nucleotide tests + 10 mM ZnCl2 as printed); anisotropy: 6.7 mM Tris-HCl pH 8.0, 3.3 mM Na acetate, 2 mM EDTA, 10 nM DNA, 25 C; P1: 20 mM Tris acetate pH 7.5, 10 mM Mg acetate, 100 mM NaCl, 37 C. The note with it: protein: recombinant; label: 32P end label; blunt.

Data set [8] deals with T3, I-2 CC-NB-ARC K207R. In words: EMSA; apparent Kd; EMSA: 20 mM Tris-HCl pH 8.0, 60 mM NaCl, 2 mM EDTA, 1 mM DTT, 10% glycerol, 0.1 mg/ml BSA, 0.15 nM nucleic acid, 20 min on ice (nucleotide tests + 10 mM ZnCl2 as printed); anisotropy: 6.7 mM Tris-HCl pH 8.0, 3.3 mM Na acetate, 2 mM EDTA, 10 nM DNA, 25 C; P1: 20 mM Tris acetate pH 7.5, 10 mM Mg acetate, 100 mM NaCl, 37 C. As to conditions: protein: recombinant; label: 32P end label; blunt.

In data set [9] the target is T4, I-2 CC-NB-ARC WT (I-2 1-519). In words: EMSA; 5 uM ATP, 10 mM ZnCl2 (so in the source); EMSA: 20 mM Tris-HCl pH 8.0, 60 mM NaCl, 2 mM EDTA, 1 mM DTT, 10% glycerol, 0.1 mg/ml BSA, 0.15 nM nucleic acid, 20 min on ice (nucleotide tests + 10 mM ZnCl2 as printed); anisotropy: 6.7 mM Tris-HCl pH 8.0, 3.3 mM Na acetate, 2 mM EDTA, 10 nM DNA, 25 C; P1: 20 mM Tris acetate pH 7.5, 10 mM Mg acetate, 100 mM NaCl, 37 C. The note with it: protein: recombinant; label: 32P end label; blunt.

For the molecule “UGGGUCAACGUGGGCAAAGAUGUCCUAGCAAUGUAAUCGUCUAUGACGUU [ssRNA sense strand (50 nt)]”, the Kd in data set [1] is 12400 nM. For `Nc1ncnc2c1ncn2[C@@H]1O[C@H](COP(=O)(O)OP(=O)(O)OP(=O)(O)O)[C@@H](O)[C@H]1O` [ATP], at I-2_1–519 [2], the ATPase activity entry is “The CC-NB-ARC domain of I-2 has a very low intrinsic ATPase activity in vitro”. Regarding `Nc1ncnc2c1ncn2[C@@H]1O[C@H](COP(=O)(O)OP(=O)(O)O)[C@@H](O)[C@H]1O` [ADP], the “ratio of DNA binding with ADP vs with ATP or no nucleotide” value at I-2_1–519 [3] is ~ 0.65. Further, the “% DNA binding with ADP relative to ATP” value at I-2_1–519 [4] amounted to 61 ± 7%. Take “TGGGTCAACGTGGGCAAAGATGTCCTAGCAATGTAATCGTCTATGACGTT (double strand) [SS1/SS2 dsDNA (50 bp)]”: in data set [1], the Kd came to 2750 nM. In the case of “TGGGTCAACGTGGGCAAAGATGTCCTAGCAATGTAATCGTCTATGACGTT [SS1 ssDNA (50 nt)]”, the Kd in data set [1] was 3340 nM.

B1: SS1s/SS2s dsDNA (20 bp), anisotropy (dsDNA)
DNA 1: TGGGTCAACGTGGGCAAAGA
DNA 2: TCTTTGCCCACGTTGACCCA
For B1, the Kd stood at 940 ± 90 nM with I-2 CC-NB-ARC K207R [5] and 320 ± 50 nM in [6]. Take TGGGTCAACGTGGGCAAAGATGTCCTAGCAATGTAATCGTCTATGACGTT (ssDNA) [SS1 ssDNA (50 nt)]: in data set [7] (single strand), the Kd came out at 150 ± 10 nM.

B2: SS1/SS2 dsDNA (50 bp) (dsDNA)
DNA 1: TGGGTCAACGTGGGCAAAGATGTCCTAGCAATGTAATCGTCTATGACGTT
DNA 2: AACGTCATAGACGATTACATTGCTAGGACATCTTTGCCCACGTTGACCCA
Turning to B2, in the data set with I-2 CC-NB-ARC S233F, the binding result is on record as “binds”. Moreover, the Kd worked out at 230 ± 10 nM with I-2 CC-NB-ARC K207R [8] and 220 ± 20 nM in data set [7] (blunt). For the same molecule, in data set [9], the binding signal was ~1 ratio to no nucleotide.
